In paper PMC4058081, “p600 regulates spindle orientation in apical neural progenitors and contributes to neurogenesis in the developing neocortex” (Biology Open, 2014):

Experiments:
[1] = biological target: the molecule itself; test: static light scattering; Ndel1^1–201 alone in solution; data not included
[2] = biological target: T1, recombinant p600^4480–5183 (human, UniProt Q5T4S7 4480-5183); test: SEC; analytical SEC, Superdex 200 5/150, 4°C, 10 mM HEPES pH 7.5, 0.15 M NaCl, 1 mM DTT; proteins alone or mixed at 50 µM and incubated 30 min on ice; fractions analysed by SDS-PAGE; conditions: both partners purified
T1 construct: Elutes mostly as a monomer (~75 kDa) in SEC; also called C-terminal portion of p600; source: E. coli BL21-Rosetta, purified (glutathione sepharose, PreScission cleavage, Resource Q)
T1 sequence (Q5T4S7 4480-5183): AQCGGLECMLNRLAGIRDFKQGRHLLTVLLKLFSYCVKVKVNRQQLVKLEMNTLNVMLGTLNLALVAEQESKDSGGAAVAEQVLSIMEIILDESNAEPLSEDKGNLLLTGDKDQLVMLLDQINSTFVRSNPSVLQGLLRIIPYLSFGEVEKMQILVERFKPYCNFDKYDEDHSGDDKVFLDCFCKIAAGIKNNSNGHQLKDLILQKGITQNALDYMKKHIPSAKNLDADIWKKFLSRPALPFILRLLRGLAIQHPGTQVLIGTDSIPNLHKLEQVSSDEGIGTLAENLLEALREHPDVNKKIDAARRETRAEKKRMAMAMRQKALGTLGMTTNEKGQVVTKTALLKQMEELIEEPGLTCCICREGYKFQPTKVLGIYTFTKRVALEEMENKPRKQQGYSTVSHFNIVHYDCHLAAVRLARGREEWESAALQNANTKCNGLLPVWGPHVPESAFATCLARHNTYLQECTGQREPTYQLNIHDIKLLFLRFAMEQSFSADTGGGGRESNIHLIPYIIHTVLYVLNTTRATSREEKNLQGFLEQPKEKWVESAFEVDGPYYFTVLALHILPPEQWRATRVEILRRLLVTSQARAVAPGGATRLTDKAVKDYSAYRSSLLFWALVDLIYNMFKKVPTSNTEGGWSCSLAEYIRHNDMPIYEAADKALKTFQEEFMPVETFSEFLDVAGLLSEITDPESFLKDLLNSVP

- Kd [2]: 30 to 50 µM
B1: Ndel1^1–201 (coiled-coil region of Ndel1) (domain or fragment, UniProt Q9GZM8 1-201, looked up)
chain: MDGEDIPDFSSLKEETAYWKELSLKYKQSFQEARDELVEFQEGSRELEAELEAQLVQAEQRNRDLQADNQRLKYEVEALKEKLEHQYAQSYKQVSVLEDDLSQTRAIKEQLHKYVRELEQANDDLERAKRATIVSLEDFEQRLNQAIERNAFLESELDEKESLLVSVQRLKDEARDLRQELAVRERQQEVTRKSAPSSPTL
notes: Dimeric in solution by static light scattering (data not included); also called N-terminal coiled-coil domain of Ndel1; source: E. coli BL21-Rosetta, purified (Ni-NTA, ion exchange)
- stoichiometry N [1]: 2
